# Test results reported in patent publication US20120021993A1 (AJOU UNIVERSITY INDUSTRY ACADEMIC COOPERATION FOUNDATION, published 2012).
# Substitutions are numbered along the chain they refer to.
# B1: KD415L567 (designed binder)
# chain: CMHCSGENYDGKISKTMSGLECQAWDSQSPHAHGYIPSKFPNKNLKKNYCRNPDPQDQPWCFTNRHQHKNELCNQPRC
# B2: L5 (KD415) (designed binder)
# chain: B1 chain with N64T, R65D, H66P, Q67N, H68K, K69R, N70W, N74D, Q75I
# notes: also called KD415L5
# B3: L56 (KD415) (designed binder)
# chain: B1 chain with N74D, Q75I
# notes: also called KD415L56
# B4: L1234 (KD415) (designed binder)
# chain: CTRSKGDEYDGHKHKTNRGLRCQHWPGTKPHFHGDKIKDRHGFRLKKNYCRNPDRELRPWCFTTDPNKRWELCDIPRC
# notes: also called KD415L1234
# B5: KD542 (designed binder)
# chain: CNRAGGHKYDGDRYRTHRGDGCQNWAKTKPHHHGIGHRDKIRDKYRKNYCRNPDAKNGPWCFTNRNGDKNELCIQPRC
# notes: Soluble monomer from Pichia pastoris; not shown: C-terminal myc tag-6xHis tag of pPICZaA
# B6: KD502 (designed binder)
# chain: CAEDKGARYDGYQYRTHKGIKCQPWYQHEPHYHGHKDKIRHKNRNKKNYCRNPDAGDRPWCFTHRDKYEHELCNRPRC
# B7: KD503 (designed binder)
# chain: CTQTKGHRYDGYKYETNWGHQCQAWTKHKPHLHGNGHRNRHKVGHEKNYCRNPDHRDGPWCFTNQYENENELCHQPRC
# B8: L1234 (KD506) (designed binder)
# chain: CPEDRGHEYDGDGDKTNRGHGCQYWDQNKPHHHGHRDKDKFKHRIKKNYCRNPDRELRPWCFTTDPNKRWELCDIPRC
# notes: also called KD506L1234
# B9: L56 (KD506) (designed binder)
# chain: B1 chain with P55Y, Q56E, D57T, Q58G, H66Y, Q67R, H68N, N74D, Q75I
# notes: also called KD506L56
# B10: KD506L567 (designed binder)
# chain: B1 chain with P55Y, Q56E, D57T, Q58G, H66Y, Q67R, H68N, N74H, Q75E
# B11: L5 (KD506) (designed binder)
# chain: CMHCSGENYDGKISKTMSGLECQAWDSQSPHAHGYIPSKFPNKNLKKNYCRNPDYETGPWCFTTDPNKRWELCDIPRC
# notes: also called KD506L5
# B12: KD408 (designed binder)
# chain: CDRHKGPKYDGFRDRTHKGHKCQYWDKPRPHHHGHKHGDEFRNRLGKNYCRNPDSQAEPWCFTHKDKYKYELCYQPRC
# B13: KD537 (designed binder)
# chain: CTRTKGAKYDGYKHRTHEGNKCQSWNKARPHLHGDRLGNKYEHKARKNYCRNPDNRAEPWCFTDKNQNQHELCYGPRC
# B14: KD555 (designed binder)
# chain: CDGAQGNGYDGNKHKTHRGNKCQAWPKHGPHYHGNGDQDGHRNKHKKNYCRNPDTRSRPWCFTDQNGHKDELCHGPRC
# notes: also called KDS55
# B15: KD456 (designed binder)
# chain: CDKNRGNGYDGNEIQTDGGVQCQHWTKTKPHHHGLKLQHEHRVKHEKNYCRNPDARTQPWCFTDKHQHKDELCIEPRC
# B16: KD409 (designed binder)
# chain: CAKDKGDKYDGHKHKTNRGDKCQTWAKNRPHFHGHRFEVGHEHKIRKNYCRNPDDQDKPWCFTHGYRNQDELCDGPRC
# B17: KD421 (designed binder)
# chain: CAGAEGNEYDGDKYKTHKGYRCQRWDKSRPHNHGNKDRHQHENKVGKNYCRNPDNEAEPWCFTDQHKHGNELCDRPRC
# B18: KD437 (designed binder)
# chain: CAKSRGYKYDGNRYKTNKGDKCQAWTKTKPHDHGHRHGHGDRFRNRKNYCRNPDHESKPWCFTYRDRYRHELCNRPRC
# B19: KD505 (designed binder)
# chain: CPEDQGDEYDGHEHKTHRGNRCQSWYRPKPHNHGHRIKDRYKYKVKKNYCRNPDTQARPWCFTNRHRDEHELCDQPRC
# notes: also called KDS05
# B20: KD445 (designed binder)
# chain: CHETKGHKYDGHRLRTNKGDRCQPWTKDKPHHHGFRDQYQVRYKLKKNYCRNPDDQNKPWCFTDGNQHEHELCNGPRC
# B21: KD404 (designed binder)
# chain: CSRDKGYRYDGDGNKTLKGHKCQHWTKSKPHDHGYRHKLGNEDKFKKNYCRNPDTRAGPWCFTDQYRDRDELCYQPRC
# notes: Soluble monomer from Pichia pastoris; also called anti-DR4 Kringle domain variant KD404; not shown: C-terminal myc tag-6xHis tag of pPICZaA
# B22: KD509 (designed binder)
# single chain: CAQSKGYRYDGDKDKTNKGHKCQDWAQNKPHVHGHRHEDRHQVKSRKNYCRNPDARARPWCFTNQVRYRNELCYKPRC
# B23: KDT08 (designed binder)
# chain: CPKSGGNGYDGYKHGTNEGLQCQNWDRAKPHDHGIEVQNEYGDRHEKNNCRNPDDKTRPWCFTHKDRYRNELCYQPRC
# notes: Soluble monomer from Pichia pastoris; also called KRT08; not shown: C-terminal myc tag-6xHis tag of pPICZaA
# B24: KD459 (designed binder)
# chain: CSRYRGHKYDGYKHRTYKGYQCQSWTKDKPHHHGIRHRNKIRDRFGKNYCRNPDTQNQPWCFTYGDEYRYELCNKPRC
# Biological target: T1, DcR1 (UniProt O14798 26-221, limits assumed)
# T1 sequence (looked up): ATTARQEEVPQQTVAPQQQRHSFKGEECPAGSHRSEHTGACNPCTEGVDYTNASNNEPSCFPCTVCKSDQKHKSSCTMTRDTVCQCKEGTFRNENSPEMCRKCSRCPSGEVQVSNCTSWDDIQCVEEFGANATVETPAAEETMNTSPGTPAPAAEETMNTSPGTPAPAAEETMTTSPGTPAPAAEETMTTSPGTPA
# Test: yeast display, flow cytometry MFI [panel KD415]
row,binding result,Binder
1,no binding,B1
2,no binding,B2
3,no binding,B3
4,no binding,B4

# Biological target: T2, DcR2 (UniProt Q9UBN6 56-211, limits assumed)
# T2 sequence (looked up): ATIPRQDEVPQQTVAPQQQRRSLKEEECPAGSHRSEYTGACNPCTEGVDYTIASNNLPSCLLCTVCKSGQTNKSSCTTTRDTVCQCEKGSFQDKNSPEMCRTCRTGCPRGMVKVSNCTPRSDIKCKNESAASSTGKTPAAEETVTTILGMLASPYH
# Test: yeast display, flow cytometry MFI [panel KD415]
row,binding result,Binder
1,no binding,B1
2,no binding,B2
3,no binding,B3
4,no binding,B4

# Biological target: T3, human-derived cell death receptor 5, extracellular domain (amino acid residues 1-130), 6xHis tag (human, UniProt O14763 56-210)
# T3 construct: extracellular domain; Expressed in E. coli; biotinylated for sorting and flow cytometry; also called DR5; TRAIL-receptor 2
# Test: ELISA, coated target, A405
# Description: (§1) In order to measure the affinity and cross reactivity of the anti-DR4, -DR5 and -TNFα protein scaffold variants based on the Kringle domain structure to the target molecules, an enzyme-linked immunosorbent assay (ELISA) was performed. The target molecules DR4, DR5, TNFα and DcR1, DcR2 were attached to a 96 well EIA/RIA plate (COSTARCorning In., USA) by its reaction at 37° C. for 1 hour, and washed three times with 0.1% PBST (0.1% Tween20, pH 7.4, 137 mM NaCl, 10 mM Phosphate, 2.7 mM KCl, SIGMA-ALDRICH Co., USA) for 10 minutes. The target molecules were attached for 1 hour to a 96 well EIA/RIA plate in 1% PBSB (1% BSA, pH 7.4, 137 mM NaCl, 10 mM Phosphate, 2.7 mM KCl, SIGMA-ALDRICH Co., USA), and then washed three times with 0.1% PBST (0.1% Tween 20, pH 7.4, 137 mM NaCl, 10 mM Phosphate, 2.7 mM KCl, SIGMA-ALDRICH Co., USA) for 10 minutes. Then, the anti-DR4, -DR5 and -TNFα Kringle domain variants were bound, and washed three times with 0.1% PBST for 10 minutes. The anti-DR4, -DR5 and -TNFα Kringle domain variants were primarily bound to mouse-derived anti-c-myc 9e10 mAb (Ig Therapy, Korea), and secondarily bound to alkaline phosphatase (AP)-conjugated anti-mouse mAb (Sigma). Each of the Kringle domain variants was reacted with […] (pNPP, Sigma-aldrich Co., USA) and quantified at an absorbance of 405 nm.
# T3 sequence (O14763 other isoform, or with tags, fused parts or gaps limits assumed, form in doubt): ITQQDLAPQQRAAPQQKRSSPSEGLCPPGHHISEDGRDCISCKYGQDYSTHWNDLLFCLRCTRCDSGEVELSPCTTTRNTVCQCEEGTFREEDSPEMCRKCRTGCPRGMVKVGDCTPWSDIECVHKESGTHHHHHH
row,Binder,EC50 (read off the curve) [nM]
1,B5,~5000
2,B6,~2000
3,B7,~400

# Biological target: T1, DcR1
# Test: yeast display, flow cytometry MFI [panel KD506]
row,binding result,Binder
1,no binding,B8
2,no binding,B9
3,no binding,B10
4,no binding,B11

# Biological target: T2, DcR2
# Test: yeast display, flow cytometry MFI [panel KD506]
row,binding result,Binder
1,no binding,B8
2,no binding,B9
3,no binding,B10
4,no binding,B11

# Biological target: T4, human-derived cell death receptor 4, extracellular domain (amino acid residues 1-216), 6xHis tag (human, UniProt O00220 24-239)
# T4 construct: extracellular domain; Expressed in E. coli; biotinylated for sorting and flow cytometry; residues 1-216; also called DR4; TRAIL-receptor 1
# Test: yeast display, flow cytometry MFI [panel KD506]
# T4 sequence (O00220 other isoform, or with tags, fused parts or gaps): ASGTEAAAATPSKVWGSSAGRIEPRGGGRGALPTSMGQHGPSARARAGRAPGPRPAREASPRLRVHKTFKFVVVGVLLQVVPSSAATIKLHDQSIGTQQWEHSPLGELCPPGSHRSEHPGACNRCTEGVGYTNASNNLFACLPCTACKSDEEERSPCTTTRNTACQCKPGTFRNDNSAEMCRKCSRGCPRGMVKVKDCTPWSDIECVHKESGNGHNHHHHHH
row,Binder,binding result
1,B8,no binding
2,B9,no binding
3,B10,no binding
4,B11,no binding

# Biological target: T1, DcR1
# Test: ELISA, coated target, single binder concentration not given, A405
# Description: as §1
row,binding result,Binder
1,no binding,B12
2,no binding,B13
3,no binding,B14
4,no binding,B15
5,no binding,B16
6,no binding,B17
7,no binding,B18
8,no binding,B19
9,no binding,B6
10,no binding,B7
11,no binding,B20

# Biological target: T2, DcR2
# Test: as above
# Description: as §1
row,binding result,Binder
1,no binding,B12
2,no binding,B13
3,no binding,B14
4,no binding,B21
5,no binding,B15
6,no binding,B16
7,no binding,B22
8,no binding,B17
9,no binding,B18
10,no binding,B19
11,no binding,B6
12,no binding,B7
13,no binding,B20

# Biological target: T4, human-derived cell death receptor 4, …
# Test: as above
# Description: as §1
row,Binder,binding result
1,B23,no binding
2,B13,no binding
3,B14,no binding
4,B16,binds
5,B17,binds
6,B5,binds
7,B18,binds
8,B19,no binding
9,B6,no binding
10,B7,no binding
11,B20,binds

# Biological target: T4, human-derived cell death receptor 4, …
# Test: ELISA, coated target, A405
# Description: as §1
Binder,binding result,EC50 (read off the curve) [nM]
B12,binds,–
B21,–,~600
B15,–,~2000
B24,–,~2000
